Results on three molecules are retold here after PMC11463774, “Structure of the Nmd4-Upf1 complex supports conservation of the nonsense-mediated mRNA decay pathway between yeast and humans” (PLOS Biology, 2024).

In data set [1] the target is T1, Upf1-HD-His6 (Saccharomyces cerevisiae, UniProt P30771 221-851).
T1 sequence: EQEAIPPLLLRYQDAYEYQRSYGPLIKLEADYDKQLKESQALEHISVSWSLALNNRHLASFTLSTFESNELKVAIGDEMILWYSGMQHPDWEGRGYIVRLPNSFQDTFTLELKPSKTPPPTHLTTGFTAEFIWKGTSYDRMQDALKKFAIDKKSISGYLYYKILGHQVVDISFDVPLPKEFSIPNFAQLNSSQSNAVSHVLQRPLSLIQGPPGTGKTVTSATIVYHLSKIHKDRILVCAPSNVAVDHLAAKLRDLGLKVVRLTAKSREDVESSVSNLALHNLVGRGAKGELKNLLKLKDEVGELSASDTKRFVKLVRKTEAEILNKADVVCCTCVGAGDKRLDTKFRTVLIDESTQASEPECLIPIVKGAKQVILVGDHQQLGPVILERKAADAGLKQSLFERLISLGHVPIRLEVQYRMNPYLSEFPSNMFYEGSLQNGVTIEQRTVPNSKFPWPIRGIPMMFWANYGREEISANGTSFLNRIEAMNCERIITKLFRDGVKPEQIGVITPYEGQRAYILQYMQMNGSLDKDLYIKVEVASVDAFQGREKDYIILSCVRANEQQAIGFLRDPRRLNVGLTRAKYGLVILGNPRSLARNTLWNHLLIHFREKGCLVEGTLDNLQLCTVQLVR
Briefly: ITC; no nucleotide; 5 mM Mg2+; ITC: 100 mM Bis-Tris pH 6.5, 133 mM NaCl, 5 mM MgCl2, 5 mM 2-mercaptoethanol, 20 C; protein 20-30 uM in cell titrated with 230-280 uM RNA. To be noted: protein: recombinant; tags: C-terminal His6; single strand. On the technique in general: In ITC the heat of successive injections is recorded.

Data set [2] has as its target T2, His6-ZZ-Nmd4 FL;Upf1-HD-His6 (Saccharomyces cerevisiae;Saccharomyces …, UniProt Q12129;P30771 1-218;221-851, |).
T2 sequence 1: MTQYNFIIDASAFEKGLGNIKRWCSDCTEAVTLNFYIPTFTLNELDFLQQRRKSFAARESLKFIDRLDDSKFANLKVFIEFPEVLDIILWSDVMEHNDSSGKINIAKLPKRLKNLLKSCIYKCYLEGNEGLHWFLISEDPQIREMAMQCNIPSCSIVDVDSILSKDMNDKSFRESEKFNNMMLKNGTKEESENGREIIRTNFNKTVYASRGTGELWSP
T2 sequence 2: T1 sequence
Briefly: ITC; preformed Nmd4/Upf1-HD complex; no nucleotide; 5 mM Mg2+; n 0.47; ITC: 100 mM Bis-Tris pH 6.5, 133 mM NaCl, 5 mM MgCl2, 5 mM 2-mercaptoethanol, 20 C; protein 20-30 uM in cell titrated with 230-280 uM RNA. To be noted: protein: recombinant;recombinant; tags: N-terminal His6-ZZ (3C cleavable, kept for ITC);C-terminal His6; copies: 1;1; single strand.

Data set [3] has as its target T3, His6-ZZ-Nmd4 FL (Saccharomyces cerevisiae, UniProt Q12129 1-218).
T3 sequence: T2 sequence 1
The experiment in a line: ITC; 5 mM Mg2+; ITC: 100 mM Bis-Tris pH 6.5, 133 mM NaCl, 5 mM MgCl2, 5 mM 2-mercaptoethanol, 20 C; protein 20-30 uM in cell titrated with 230-280 uM RNA. To be noted: protein: recombinant; tags: N-terminal His6-ZZ (3C cleavable, kept for ITC); single strand.

In data set [4] the target is T4, Upf1-HD-His6 (S. cerevisiae Upf1 helicase domain, residues 221 to 851) (S. cerevisiae, UniProt P30771 221-851).
T4 construct: Upf1, S. cerevisiae, helicase domain, residues 221 to 851; Used in ITC and, by the buffer D200 preparation, in the ATPase assays; also called yeast Upf1 helicase domain; source: E. coli BL21 (DE3) Gold, purified (TALON, HiTrap Heparin, S200 SEC); not shown: His6, C-terminal, kept
T4 sequence (looked up): T1 sequence
The experiment in a line: ITC; His6-ZZ-Nmd4 proteins (260 μM full-length and « arm », 330 μM PIN) or His6-ZZ (277 μM) injected into Upf1-HD-His6 (30 to 35 μM); 20°C; 100 mM Bis-Tris pH 6.5, 200 mM NaCl, 5 mM MgCl2, 5 mM 2-mercaptoethanol; one-binding-site model. Particulars: both partners purified.

B1: RNA poly(U)30 (ssRNA)
RNA: UUUUUUUUUUUUUUUUUUUUUUUUUUUUUU
Consider B1, for which the results for the Kd in data set [1], in data set [2] and in data set [3] were 1.03 ± 0.28 µM, 0.44 ± 0.21 µM and 8.1 ± 2.95 µM, respectively.

B2: His6-ZZ-Nmd4 full-length protein (S. cerevisiae) (natural protein, UniProt Q12129 1-218, looked up)
chain: T2 sequence 1
notes: also called His6-ZZ-Nmd4 FL; full-length Nmd4; source: E. coli BL21 (DE3) Gold, purified (Ni-NTA, HiTrap Heparin, S75 SEC); not shown: His6, N-terminal, kept; ZZ (tandem Z-domain of S. aureus protein A), N-terminal, kept
On to B2, for which, in data set [4], the Kd (commonly the free concentration of one partner at which half of the binding sites on the other are occupied at equilibrium, for simple one-to-one binding) was found to be 2.1 µM; the dH was -14.8 kcal/mol; the stoichiometry N (in general, the number of molecules, sites or subunits per partner or assembly) is 1.08.

B3: His6-ZZ-Nmd4 « arm » (residues 168 to 218) (domain or fragment, S. cerevisiae, UniProt Q12129 168-218, looked up)
chain: NDKSFRESEKFNNMMLKNGTKEESENGREIIRTNFNKTVYASRGTGELWSP
notes: Nmd4, S. cerevisiae, C-terminal « arm », residues 168 to 218; also called « arm » region; source: E. coli BL21 (DE3) Gold, purified; not shown: His6, N-terminal, kept; ZZ (tandem Z-domain of S. aureus protein A), N-terminal, kept
Turning to B3, in data set [4], binding was put at a Kd of 1.96 µM, the dH is -12.4 kcal/mol and the “stoichiometry N” value was found to be 0.98.
